Experimental data reported in PMC9628817.

Assays:
[1] = molecular target: CelA203, lichenase (β-1,3-1,4-glucanase) from Bacillus subtilis B110 (Bacillus subtilis B110); assay: SDS-PAGE of unboiled sample, mass from a mobility (Rf) standard curve; purified CelA203, unboiled, 10% SDS-PAGE; tetramer band and weak monomer band; tetramer to monomers
[2] = molecular target: CelA203, lichenase (β-1,3-1,4-glucanase) from Bacillus subtilis B110 (Bacillus subtilis B110); assay: SEC; FPLC, Enrich SEC 650 10 × 300 column, 20 mM Tris-HCl pH 7.0, 0.5 ml/min; calibrated with HMW native protein markers (66-669); polymer and monomer peaks

A stoichiometry N [1] of 4.07 and a stoichiometry N [2] of 4 were found for “CelA203, lichenase (β-1,3-1,4-glucanase) from Bacillus subtilis B110 (enzyme)” in this work.
